Patent US20170101472A1 (Regeneron, published 2017)
Values belong to the binder of their own block, whether it stands above or below them.

Columns and labels:
[1] = target: T1, cynomolgus LAG3 on activated CD4+ and CD8+ cynomolgus T cells (cynomolgus); experiment: FACS, stimulated cynomolgus CD4+ T cells, donor 1
T1 chain: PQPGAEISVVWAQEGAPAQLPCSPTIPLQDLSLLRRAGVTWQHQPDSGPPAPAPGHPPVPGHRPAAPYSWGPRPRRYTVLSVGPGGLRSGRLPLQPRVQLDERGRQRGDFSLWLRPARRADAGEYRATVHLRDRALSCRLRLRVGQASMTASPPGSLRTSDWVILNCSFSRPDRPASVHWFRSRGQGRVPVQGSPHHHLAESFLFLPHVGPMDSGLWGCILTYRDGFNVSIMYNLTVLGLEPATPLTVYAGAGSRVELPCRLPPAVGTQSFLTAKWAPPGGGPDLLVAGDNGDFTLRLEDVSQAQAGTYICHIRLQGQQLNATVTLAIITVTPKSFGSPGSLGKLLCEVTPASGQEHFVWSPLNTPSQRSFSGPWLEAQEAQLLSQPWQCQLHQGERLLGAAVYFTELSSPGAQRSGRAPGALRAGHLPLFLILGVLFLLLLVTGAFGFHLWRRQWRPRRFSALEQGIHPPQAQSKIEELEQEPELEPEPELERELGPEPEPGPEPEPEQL
Procedure: (§1) Next, stimulated cynomolgus T-cells from each donor, as described above, were stained with LIVE/DEAD dye (Molecular Probes) to distinguish between live and dead cells via FACS. Subsequently, cells were co-incubated with PE-conjugated anti-CD8 and FITC-conjugated anti-CD4 for 15 min on ice to enable the detection of CD4 and CD8 positive and negative cell populations.
(§2) Next, the serially diluted antibodies were directly labeled using Zenon Alexa-Fluor 647 (Molecular Probes) and incubated with the cynomolgus CD4+/CD8+ T-cell suspension for 15-30 min on ice. Cells were centrifuged and pellets washed with staining buffer to remove unbound antibodies and fixed for 12 h with a 1:1 dilution of Cytofix (BD Biosciences) and staining buffer. Following the incubation period, fixation buffer was removed and pellets were resuspended in staining buffer, filtered, and used for fluorescence measurements.
(§3) Fluorescence measurements were acquired on the Fortessa (Becton Dickinson) and data analyzed in FlowJo to determine the mean fluorescence intensities (MFI). EC₅₀ values were calculated from a four-parameter logistic equation over an 11-point response curve using GraphPad Prism.

[2] = target: T1, cynomolgus LAG3 on activated CD4+ and …; experiment: FACS, stimulated cynomolgus CD4+ T cells, donor 2
Procedure: as §1, §2, §3

[3] = target: T1, cynomolgus LAG3 on activated CD4+ and …; experiment: FACS, stimulated cynomolgus CD8+ T cells, donor 1
Procedure: as §1, §2, §3

[4] = target: T1, cynomolgus LAG3 on activated CD4+ and …; experiment: FACS, stimulated cynomolgus CD8+ T cells, donor 2
Procedure: as §1, §2, §3

[5] = target: T2, monkey LAG3 (mfLAG3) expressed on HEK293 cells (cynomolgus monkey, UniProt P18627 24-525 (human entry)); experiment: flow cytometry, HEK293/mfLAG3 cells; FACS on HEK293/mfLAG3 cells
T2 construct: also called HEK293/mfLAG3; HEK293-mfLAG3
T2 chain: T1 chain
Procedure: (§4) The serially diluted antibodies were added to the cell suspension and incubated for 15-30 minutes on ice. The cells were centrifuged and pellets were washed with staining buffer to remove unbound antibodies. […] The cells were centrifuged and pellets were washed with staining buffer to remove unbound secondary F(ab′)2 and fixed overnight with a 1:1 dilution of Cytofix (BD Biosciences, #554655) and staining buffer. Following day, fixed cells were centrifuged and pellets were washed with staining buffer, resuspended and filtered. Fluorescence measurements were acquired on HyperCyt® cytometer and analyzed in ForeCyt™ (IntelliCyt; Albuquerque, N. Mex.) to determine the mean fluorescence intensities (MFI). The EC₅₀ values were calculated from a four-parameter logistic equation over an 11-point response curve using GraphPad Prism. EC₅₀ was defined as the concentration of antibody at which 50% of maximal binding signal is detected. The MFI ratio for each antibody was calculated by dividing the MFI at 100 nM by MFI at 0 nM of antibody concentration.

[6] = target: T2, monkey LAG3 (mfLAG3) expressed on …; experiment: flow cytometry, HEK293/mfLAG3 cells; FACS on HEK293/mfLAG3 cells; MFI ratio 100 nM/0 nM
Procedure: as §4

EC50 [1]: 1.2 nM
EC50 [2]: 0.38 nM
EC50 [3]: 0.46 nM
EC50 [4]: 0.41 nM
EC50 [5]: 1.15 nM
B1: H4sH15482P (antibody, human IgG4 S228P, kappa)
heavy: QVQLVESGGGVVQPGRSLRLSCVASGFTFSSYGMHWVRQAPGKGLEWVAIIWYDGSNKYYADSVKGRFTISRDNSKNTQYLQMNSLRAEDTAVYYCASVATSGDFDYYGMDVWGQGTTVTVSSASTKGPSVFPLAPCSRSTSESTAALGCLVKDYFPEPVTVSWNSGALTSGVHTFPAVLQSSGLYSLSSVVTVPSSSLGTKTYTCNVDHKPSNTKVDKRVESKYGPPCPPCPAPPVAGPSVFLFPPKPKDTLMISRTPEVTCVVVDVSQEDPEVQFNWYVDGVEVHNAKTKPREEQFNSTYRVVSVLTVLHQDWLNGKEYKCKVSNKGLPSSIEKTISKAKGQPREPQVYTLPPSQEEMTKNQVSLTCLVKGFYPSDIAVEWESNGQPENNYKTTPPVLDSDGSFFLYSRLTVDKSRWQEGNVFSCSVMHEALHNHYTQKSLSLSLGK
light: EIVLTQSPATLSLSPGERTTLSCRASQRISTYLAWYQQKPGQAPRLLIYDASKRATGIPARFSGSGSGTGFTLTISSLEPEDFAVYYCQQRSNWPLTFGGGTKVEIKRTVAAPSVFIFPPSDEQLKSGTASVVCLLNNFYPREAKVQWKVDNALQSGNSQESVTEQDSKDSTYSLSSTLTLSKADYEKHKVYACEVTHQGLSSPVTKSFNRGEC
notes: H4sH = modified human IgG4 Fc; also called mAb1

EC50 [1]: 0.42 nM
Ratio of MFI (11 nM/0 nM) [1]: 1.3
EC50 [2]: 0.22 nM
Ratio of MFI (11 nM/0 nM) [2]: 1.5
EC50 [3]: 0.085 nM
Ratio of MFI (11 nM/0 nM) [3]: 3.5
EC50 [4]: 0.11 nM
Ratio of MFI (11 nM/0 nM) [4]: 6.3
EC50 [5]: 1.57 nM
Ratio of MFI (100 nM/0 nM) [6]: 16.7
B2: H4sH14813N (antibody, human IgG4 S228P, kappa, V domains shown)
VH: QVQLQQWGAGLLKPSETLSLTCAVYGGSFSGYYWNWIRQPPGKGLEWVGEISHRGSTNYNPSLKSRVTISLDTSKNQFSLKLTSVTAADTAVYYCSRDEELEFRFFDYWGQGTLVTVSS
VL: EIVLTQSPATLSLSPGERATLSCRASQSVSSYLAWYQQKPGQAPRLLVYGASNRATGIPARFSGSGSGTDFTLTISSLEPEDFAFYYCQQRSNWPLTFGGGTKVEIKR
notes: H4sH = modified human IgG4 Fc
